Results reported in the RNAGym collection of RNA variant scans (doi:10.7554/elife.90254).

B1: LINE1-full (parent)
chain: UACGUAGGUGGUUUUCCCCUGAUAGUGCUAAGGGGGCCUGGAAGUUUGGACUGGGCAGAGCUCAACACAGCGUGGCAAAGUGGCUGUGGCUAGACUGCCUCUCUGGAUUCCUCGUCACUCAGCAGGGCAUCUCUGAGAGAAAUGCC

Variants of: B1
Experiment: self-cleavage, relative activity (ratio to wild type); higher = more cleavage; in vitro, sequencing; the parent is a self-cleaving ribozyme

Row | Variant | self-cleavage
1 | U14A U47C | 1.14
2 | U13A U130C | 1.22
3 | U13C A117G | 1.02
4 | U13C A117U | 1.07
5 | U14A A129G | 1.84
6 | U14A A30G | 1.27
7 | U14C A77C | 2.68
8 | U14C A77G | 1.73
9 | U13C C131A | 1.28
10 | U13A G83A | 0.58
11 | U13A A121U | 1.12
12 | U12G U52C | 0.79
13 | U12G U52A | 1.22
14 | U12G G35A | 0.89
15 | U13A C37U | 0.72
16 | U12G C120A | 1.49
17 | U13C A136U | 1.18
18 | U13C A136G | 1.25
19 | U12G G33A | 1.47
20 | U13C G72A | 1.22
21 | U13C A140G | 1.23
22 | U13A U115C | 1.56
23 | U13A U115G | 1.29
24 | U12G U62C | 0.14

Row | Variant | self-cleavage
25 | U12G U62A | 0.16
26 | U13C U39C | 1.08
27 | U13G U115G | 1.43
28 | U13C A57U | 0.12
29 | U13C A57G | 0.76
30 | U13C A65G | 0.12
31 | U12G U23A | 0.85
32 | U13A A77G | 0.46
33 | U13C G89A | 0.04
34 | U14A A24G | 0.96
35 | U14A A24U | 0.77
36 | U14A U52C | 0.8
37 | U13A A79U | 0.96
38 | U13A C19A | 1.84
39 | U13C C84U | 0.11
40 | U13C C120U | 1.05
41 | U13C A59U | 0.86
42 | U13C A59G | 0.13
43 | U12G U130A | 1.65
44 | U13A A140G | 0.52
45 | U13C U143A | 1.17
46 | U12G U81C | 0.86
47 | U13A U20A | 1.15
48 | U13C U119C | 1.54

Row | Variant | self-cleavage
49 | U13C U100C | 1.4
50 | U13C U100A | 0.7
51 | U14C A59U | 0.88
52 | U13A U85C | 0.13
53 | U13A U29A | 0.42
54 | U13C C66U | 0.14
55 | U14A U81G | 0.8
56 | U14A U81A | 2.09
57 | U14A U81C | 1.1
58 | U13C U47C | 1.56
59 | U12G G93A | 0
60 | U14A | 1.01
61 | U14C | 1.15
62 | U13C C103A | 1
63 | U13C C103U | 1.06
64 | U14A U104C | 1.69
65 | U14A U104A | 1.16
66 | U13C A94G | 0.33
67 | U13G G58A | 0.17
68 | U13A U81A | 1.81
69 | U13A U81C | 0.85
70 | U13A U143A | 0.84
71 | U13A U143G | 1.01
72 | U14C A67G | 0.61

Row | Variant | self-cleavage
73 | U12G U115G | 0
74 | U12G U115A | 0.75
75 | U12G U115C | 1.47
76 | U12G U45C | 1.48
77 | U14A A138G | 1.15
78 | U14A U143C | 1
79 | U14C A50U | 1.03
80 | U13C U73G | 0.91
81 | U13C U73A | 1.39
82 | U13C U73C | 1.17
83 | U13A U134C | 0.85
84 | U14A A78G | 0.34
85 | U13G U39C | 0.7
86 | U13C G41A | 1.81
87 | U13C G106A | 1.51
88 | U14A C103U | 0.99
89 | U13C G144A | 1.91
90 | U14A C28U | 0.66
91 | U13C A77C | 1.15
92 | U13C A77U | 0.87
93 | U13C A77G | 1.85
94 | U14A A142G | 0.85
95 | U13C U134A | 1.03
96 | U13C U134G | 1.04

Row | Variant | self-cleavage
97 | U13C A78U | 1.81
98 | U13C A78G | 0.99
99 | U13C A138U | 1.31
100 | U13C A138C | 1.13
101 | U13C U81C | 1.05
102 | U13G G114A | 0.64
103 | U13C C99U | 0.48
104 | U13A A59U | 0.44
105 | U14C A22U | 2.36
106 | U13C G25U | 1.52
107 | U12G U119A | 1.32
108 | U12G U119C | 1.34
109 | U13A C131U | 1.15
110 | U13A G48A | 1.01
111 | U14C A64U | 0.46
112 | U12G U108G | 0.82
113 | U13G C76U | 1.47
114 | U12G U104C | 1.48
115 | U13A U108C | 1.02
116 | U14A U130C | 0.83
117 | U13C U46A | 1.13
118 | U13C U46G | 1.31
119 | U13C G126U | 1.2
120 | U13A C145U | 1.26

Row | Variant | self-cleavage
121 | U13A A50G | 0.76
122 | U12G U46C | 1.29
123 | U13C G33U | 1.64
124 | U13A A142G | 1.2
125 | U13A A92G | 0.12
126 | U13C A129C | 1.33
127 | U13C C116U | 0.7
128 | U13C C116A | 1.15
129 | U13C G54U | 0.6
130 | U13C G54A | 0.62
131 | U13C U52G | 1.3
132 | U13C A43G | 0.99
133 | U13C A43U | 1.29
134 | U13C A43C | 0.84
135 | U14A C99U | 0.85
136 | U12G U26A | 1.3
137 | U12G U26C | 0.57
138 | U13G A121G | 1.1
139 | U13C G135A | 0.75
140 | U13G A79U | 0.44
141 | U12G U112C | 1.01
142 | U13G A92G | 0
143 | U14C A31G | 1.24
144 | U14C A31U | 1.11

Row | Variant | self-cleavage
145 | U13C G80A | 1.48
146 | U13C U112C | 1.35
147 | U13C U112G | 1.13
148 | U13A C98G | 0.09
149 | U13A G137A | 1.13
150 | U13C A64C | 0.45
151 | U13C A64U | 0.44
152 | U13C U132C | 1.2
153 | U13C U132A | 1.3
154 | U13A C63U | 0.35
155 | U14A G72U | 1.32
156 | U13A G126U | 1.86
157 | U12G G72A | 0.9
158 | U14A U109C | 1.05
159 | U14A U29A | 1.51
160 | U14A U29C | 1.28
161 | U13C C128A | 0.79
162 | U13C C128U | 0.78
163 | U13A A64U | 0.25
164 | U13A A64G | 0.12
165 | U14C A78C | 1.74
166 | U14C A78G | 1.22
167 | U13A A107U | 1.74
